Where two headings read alike, the source gives them in different places. Each block holds one molecule with its values, some of them ahead of it.
Tests used:
[1] = molecular target: ctMic60sol V455D/F461D (Chaetomium thermophilum); assay: ITC
[2] = molecular target: Chaetomium thermophilum Mic60 excluding the TM region (residues 208 to 691) (Chaetomium thermophilum); assay: native gel or EMSA
[3] = molecular target: Chaetomium thermophilum Mic60 excluding the TM region (residues 208 to 691) (Chaetomium thermophilum); assay: native gel or EMSA; remark: listed apart in the source
[4] = molecular target: ctMic60sol L676D (Chaetomium thermophilum); assay: native gel or EMSA
[5] = molecular target: ctMic60sol R525C (Chaetomium thermophilum); assay: native gel or EMSA
crystal structure = molecular target: the molecule itself; assay: crystal structure

- fold reduction of affinity against ctMic60sol [1]: 30 fold
Molecule: Chaetomium thermophilum Mic19 (natural protein)

- stoichiometry N [2]: 4
- stoichiometry N [3]: 2
Molecule: Chaetomium thermophilum Mic60 excluding the TM region (residues 208 to 691) (domain or fragment)

- stoichiometry N [4]: 2
Molecule: ctMic60sol L676D (domain or fragment)

- stoichiometry N [5]: 4
Molecule: ctMic60sol R525C (domain or fragment)

B1: Mic60 coiled-coil domain from Lachancea thermotolerans (amino acids 207 to 382) (domain or fragment, UniProt C5E325 207-382, looked up)
chain: NEDIRTNVAESVAVQYGQASKDLHESFEIRAKSREVELTQQFLNEFNAFKAQLEKHSSEELASALKANEQALLAKQSNEVALLSMKQVEEFTKILSEKLDQERQGRLSKLEALNGSVQELAEAVDQVDTLVMKSEVLSQLSLLTTLLKNKLHAGDESSVKIDSELARLKTLCDILP
- stoichiometry N (crystal structure): 4
